{"source": "patent US20020111476A1", "about": "(published 2002)", "molecular_target": "the molecule itself", "assay": "preliminary analysis of molecular form; method not detailed"}
{"protein": "Mouse cysteine rich soluble protein 2 (C2) (ligand, the copy number is not fixed; also called mC2; mouse C2) DETIEIIVENKVKELLANPANYPSTVTKTLSCTSVKTMNRWASCPAGMTATGCACGFACGSWEIQSGDTCNCLCLLVDWTTARCCQLS", "values": [{"measurement": "binding result", "value": "binds"}]}
